From US20200239586A1

T1: human Fn14 (human) (UniProt Q9NP84)
T1 sequence: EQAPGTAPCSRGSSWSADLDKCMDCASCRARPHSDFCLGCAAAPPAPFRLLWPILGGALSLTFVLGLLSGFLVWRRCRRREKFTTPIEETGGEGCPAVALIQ

T2: Histidine tagged hFn14 extracellular domain, bacterially expressed (human) (UniProt Q9NP84)
T2 sequence: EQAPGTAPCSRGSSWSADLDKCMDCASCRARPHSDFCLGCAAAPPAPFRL

T3: synthetic peptide hFn14 sub-domain 3 (human)
T3 sequence (peptide, biotin on the added C-terminal lysine): ASCRARPHSDFCLGK


Columns and labels:
human Fn14 (human) = target: T1, human Fn14 (human); assay: cell-based or functional assay
[1] = target: T2, Histidine tagged hFn14 extracellular domain, bacterially expressed (human); assay: SPR (ProteOn XPR36), mAb coupled to chip, His-tagged hFn14 analyte, Langmuir 1:1 fit
[2] = target: synthetic peptide hFn14 sub-domain 2 (human); assay: ELISA on biotinylated sub-domain 2 peptide, mAb at 5 ng/ml
Sequence of synthetic peptide hFn14 sub-domain 2 (human) (peptide, as listed by the source): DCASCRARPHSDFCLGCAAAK

[3] = target: T3, synthetic peptide hFn14 sub-domain 3 (human); assay: ELISA on biotinylated sub-domain 3 peptide, mAb at 0.2 ug/ml

| Binder | % Agonist, IL-8 secretion by A375 cells (human Fn14 (human)) | % Antagonist, IL-8 secretion by A375 cells (human Fn14 (human)) | Kd [1] | koff [1] | kon [1] | % decrease in binding compared to CRCBT-06-001 and CRCBT-06-002 [2] | % decrease in binding compared with CRCBT-06-005 [3] |
| --- | --- | --- | --- | --- | --- | --- | --- |
| ITEM-4 (antibody, from another filing, V domains shown) VH: QVQLQQSGPELVKPGASVKMSCKASGYTFTDFIIAWVKQRTGQGLEWIGEIYPGTGRTYYSEKFRGKATLTADKSSNTAYMQLSSLTSVDSAVYFCARRTIYYDYDGDYWGQGTTLTVSS VL: DIVMTQAAFSNPVTLGTSASISCRSSKSLLHSNGITYLYWYLQKPGQSPQLLIYQMSNLASGVPDRFSSSGSGTDFTLRISRVEAEDVGVYYCAHNLELPWTFGGGTKLELK | 8% | 97% | 1.68 nM | 0.000864 s⁻¹ | 510000 M⁻¹ s⁻¹ | – | – |
| ITEM-1 (antibody, from another filing, V domains shown) VH: EVKLEESGGGLVQPGGSMKLSCVASGFSFSNYWMNWVRQSPEKGLEWVAEIRLKSNNYATHYAESVKGRFTISRHDSKSSVYLQMNNLRAEDTGIYYCTRAYADYFDYWGQGTTLTVSS VL: DIVLTQSPASLVVSLGQRATISCRASQSVSTSTYSYMHWYQQKPGQPPKILIKYASNLESGVPARFSGSGSGTDFTLNIHPVEEEDTATYYCQHSWEIPYTFGGGTKLEIKR | 21% | 9% | 4.1 nM | 0.00147 s⁻¹ | 358000 M⁻¹ s⁻¹ | 68% | 76% |
